The data set in a line: label from the status in PepcDB records.

The results in this text go back to a protein production outcome set (Wang et al. 2014).

Regarding “MKNVLLLGESGFVGSVVYNSLHCVCKVYTIAPNKKITIDNVFEVANDVFKSIEINNIDVVINCIAMANLDQCENNKLDCELVNTTFVTHIVDYLKDKDIKLVHISSNAVYDGLNAPYSENSLREPINYYGICKSNADYYIESNLNNYAIARPITVYGPRKIEQRDNPVSFIVKKILSGESFDLVDDNIVNMIHVEDLSNAIKKLSLSDLKGVYNLSGDVSECRYDLGIRIAKIMGSDLNKINKVSGSNFKMAAKRPYNTSFDNKKMKSVLNIEPKNIDIAISEILNAKAY”, the protein production entry was “failed”.

As for “MKNYQKMSVAQDARVELHDSLALTGAEVSINHLPAGAGVPFVHSHKQNEEIYGILSGKGFITIDGEKIELQAGDWLRIAPDGKRQISAASDSPIGFLCIQVKAGSLEGYTMTDGVVQLEHHHHHH”, the protein production result is given as “not failed”. The result for “MKPFMNNTKQLKRPLLNKQELALFAATILWGITFLVIHIAVRYSGPLFFVGFRFMVASLICGAIFWRSLKGITVYEIFAGMAIGLGMFLGYALQATGLQTIISSQSAFITALYVPIVPILQWIVFKKPPRLACWLGIIFAFIGLILISGKKSGSFDFSKGEILTLLGALAIAGEVILIGIFAHKVDSRRVTIIQLFFSGLFSFFCMPFIGESIPPFSWVWLNIGIGLALMSAIIQLAMNWAQKSISPTRATLIYAGEPVWAGIVGRLAGEHLSPLALLGGALILIGIVVAELQPSQWRKKKNNLKK” reads “failed”.

In the case of “MKPIRYTIAPAAPEAHLFTVTVTVDAPDPQGQRFSLPAWIPGSYMIREFARNIVRIEAMCGERAVRLAKLDKHTWQAAPCSGPLTVSYDVYAWDLSVRAAHLDPTHGFFNGTSVFLRVEGGEQVRCLVDIQPPAGDAYRGWRVATALREASGRVQGRVGAKRYGFGWYEAADYDELIDHPVEMGTFALVSFEACGAQHDAVFTGRVPNLDLERIARDFKRICEAQIRLFEPHTAAAPFLDSNRRYVFMTMVTTDGYGGLEHRASTALICARNDLPVTGRDETTEGYRTFLGLVSHEYFHTWNVKRIKPAVFVPYALDREVHTPLLWLFEGFTSYYDDLMLVRSGLISEAQYLEMLAKTWNGVLRGSGRLKQSVAESSFDAWTKYYRQDENAPNAIVSYYTKGSLVALALDLTIRTQTGGEHSLDDVMRALWAAGGRDFYAPGHAQRGVTEAELIALMEETTGLRLRTLVRQLAEGRDDPPLPALFKAIGVTATRKPAEAALGLGAKVGAENGFVKLLQVFDGGPAQRAGLSAGDLVVAVDGLRVLSGQLDKSLARHRAGDTVPVHVFRRDELMQLDVTLSADATPQFALALSAEPSPLRSAWLGKRAAARGARPAKSRSAA”, the protein production entry is recorded as “failed”. On to “MKPLRTRFLRWRGAAAGGLLAGALLASPAWAAKQADWWVYVHNDKARDIGALLAAGADPNVRYDNGQPAIMRAVVDNAWEVFDVLAANRRTDLNAENPAGETPLMYLAVAGQTERAQALIARGAQVNRLGWTPLHYAASKGRLETARMLLGKQALVNAPSPDGTTPLMMAAYSGDRRMVQLLLDAGADITTRNLKGMSAADWAAFGKSEALARELKPMIARAEAERQARHGAVATSKLAPAAETPPTAQPAAASAAASQPGEGRSLSGVSGVRLNSYD”, for which the protein production result is listed as “failed”. Turning to “MKPNIVLIMVDQMRGDCLGVNGNEFIETPNLDMMATEGYNFENAYTAVPSCIASRASILTGMSQKSHGRVGYEDGVSWNYENTIASEFSKAGYHTQCIGKMHVYPERNLCGFHNIMLHDGYLHFARNKEGKASTQIEQCDDYLKWFREKKGHNVDLIDIGLDCNSWVSRPWGYEENLHPTNWVVNESIDFLRRRDPSKPFFLKMSFVRPHSPLDPPKFYFDMYKDEDLPEPLMGDWANKEDEENRGKDINCVKGIINKKALKRAKAAYYGSITHIDHQIGRFLIALSEYGKLNNTIFLFVSDHGDMMGDHNWFRKGIPYEGSARVPFFIYDPGNLLKGKKGKVFDEVLELRDIMPTLLDFAHISIPDSVEGLSLKDLIEERNSTWRDYIHGEHSFGEDSNHYIVTKKDKFLWFSQRGEEQYFDLEKDPKELTNLINSEEYKERIDYLRKILIKELEGREEGYTDGNKLLKGYPVSTLKHIR”, the protein production result was “failed”. Consider “MKPRGICFFDMDGTLLNSESKVLDTSLQALDKLRENNVIPVIATGRTLIEISHQMKITGIESAVMMNGQMAIFEGEKVYEDVIDADLLDRLTEEAKSQNVEVCYYNDKRIGATASTPVVKAHYDFLGEPMPKVRPNMYKEETINMALLLLETGDDYFPERFPELQFVRNTPFSNDVLRKGGSKAVGISKLLEVMGYQDVPTYAFGDGMNDLEMFGAVDYAIAMENAVPLLKEKADFVTKDNNSDGIMLGLKQFDLI”, for which the protein production result is recorded as “failed”. For “MKPRISVIIPTYNREELLRRAIESVLDQTFDDFEILVIDGAKSESTRELVRSFGDGRIRYIPQKGKGIANARNLGVSKARGEFIAFLDDDDRWRRDKLELQLELFKVLPQSYGVVYTAFTYYYLEKDKVLGIKHPRASGDVYKHLLKDNITGTSTIMVKRECFKKVGLFREDFVTCEDWDMWLRMAKVCYFGAIDEPLVDYSIHSGQFSFAKYLEGRYKMIEKHLDIKRNPRVLSYHLLQIGVLKLFSGDKRGVEDLLKAFRLNPTIRGNIWDILSSFVDVRTRIYILKFLGRLLEHHHHHH”, the protein production entry is on record as “not failed”. For the sequence “MKPSGEDQAALAAGPWEECFQAAVQLALRAGQIIRKALTEEKRVSTKTSAADLVTETDHLVEDLIISELRERFPSHRFIAEEAAASGAKCVLTHSPTWIIDPIDGTCNFVHRFPTVAVSIGFAVRQELEFGVIYHCTEERLYTGRRGRGAFCNGQRLRVSGETDLSKALVLTEIGPKRDPATLKLFLSNMERLLHAKAHGVRVIGSSTLALCHLASGAADAYYQFGLHCWDLAAATVIIREAGGIVIDTSGGPLDLMACRVVAASTREMAMLIAQALQTINYGRDDEK”, the protein production result is recorded as “not failed”. On to “MKPTLLVLAAGMGSRYGGVKQIAAVGRHDETLLDYAVYDAMNNGFGKVVFIIREDIENDFRERFFNRIARNCNADYVFQSMDGFLTDEQIKRAVNRKKPWGTAHAILSAELKINEPFAVINADDYYGRSAYKTIATHLSTLSNDSTEHAMVGYILDKTLSRSGSVSRGVCQVGNGYLIGITEHKDIAYKKEGSVEKIVSEHEGKTVEFSGKETVSMNLFGFSPKIFDFMNEYFKDFIHKYAESEKAECLLPEGVGAMMKKGLGKVKVYTTTERWFGMTYPEDREIVKKELENKVKEGYYPEFLWR”, for which the protein production result was “failed”. In the case of “MKPVAPRSFFAMDFLEFITAWEGKWLSQRTNYSFEQNEAGNAKSDVTVQRWDSQTELGRSLLERAGLKNQGELILLQLSWDNSVDWGKSKQKGTIYYGFLPDADHGDRGQLWRGTTNSNLAFLRGDYHLGSDECLTLNLGDGETSLTERHWYASPNLRLRTSLIQQGEGYSHSAFYSDIRRLPPAE”, the protein production result is given as “failed”. “MKQEEEPWIDHLKQRVNEYEKPLPENDWNHFQTEFFTPYLHKRRRMKTMRIAAVFFLIFIPFATTFYFLQTEKHEAASPVVSLPACQPRSITGSPSIMPENKLLQDRTKSKTASLTRPPIQTSIHTDTANNIETECMPPVQDTIRDTESVHKRPSGHKHFALPYKRSGYTLALAISAGNNGASTGFINKTFSRGDIGSSHKDEIMYWSDFKDYLQEYPSDFPDAQAYEALLQIANDNTGRPMTEYTHYNLPVSIELSLRKSISRHWGVSAGLQYTYLSSESSIGEDSKWVKRQKLHYIGLSVKLDRRLYTTRTFSFYATGGGTIDKSVSGKLEQDFIVQKEKIYSSTENLKIKPFQFSIHAALGIQYNINPTLGAFIEPGTVFYFKDGSFKNTIRDKHPLHFNLQLGVRWNY”: the protein production result is given as “failed”. Then “MKQEFVAAIEIDGTGRIHVTPGESQFPYIYREAMEVSWNESTRSLHSPVPREWSYAQWLQQIFAAASEQGVKLVLGPNTRWVNVPNELRAELTHAAAA”, with “not failed”; and “MKQGKISDYVNPVPIKITDDKAIFKVEKLVPTPYIERVLPLEYAPLYEQLAELDTAIPKIVCLEKSDRLTVIEEYIDSPRLDQYLETHKLTSAQIHDLICQLLDVLAVLHQQIPPIIHRDIKPENIFYDGQKLILADFDIARNMQEDADRDTRILGSVGYAAPEQFGFSQSGPASDFYAVGVLMNVLYTGYLPSVRLYKGPEREIIEKATHINSQKRYQSAQEFKDAITGLGRSSWLLPGFRSHQPARMLTAGCGYLLMLFSSFSMDAKSDSAADSFLLRLSFFMVLFLIVLFACNYRNIKSICLFHSSKSKFTRACGIIISYLLVATVLTTALAALSVAISSFGH”, with “failed”. In the case of “MKQGPSSEDDCFSLLKQFEHVLESDPLIDEVGFIHPSQFTMLDKEAGFSNEFQPNNGTSSKFWNQDHKLGISTDILVQLCKDAKHVFLLALQEYKSHGNACDESQIKNISCSPCIPESDVMKHSQSVLLLSSDFGTAWNARKLILSKKDHLSAFTEELRLSGLILSNSPKSESTWSHRRWIIKMISQSFSTLQEIITKESELVESIGERSKMNYRAWYHRCWLVSYMTIEQVIQELNKSKRWAGLHVADSSCFHYRRVRAAYSVDVIVRLMLKILESLYVKGSSAYDKTEARKIWKEELDWNEELVERYVGREALWLHRRFLSLNWIMYFACNHSDASPETGESIIMNEEIAIFIDNEIRLLDSSMTVPDTKFEDFQAQALHAAVYTLWLTKSIPVLWRMLEEKLGTEKVKCVLNTIAQERPSLLHHLVNV”, the protein production entry is “failed”. As for “MKQHILVLEDANQRRTIILDEQQYSIGRHSGTSIQIHSRQASRHHATLMRKTNSKTNEECFWIIDGDLEGNKSQNGVFVNGEKRLIHELKNGDLINFGCSINASYHVTGEGFGESSSQPVEILPQTSPYNEAVSAQIASSYNTREGVDLLAGSNDETFHEQSYLDTATDLPNQTLFLEYLNIALSNARRHHAQVGVLLCQINNWSDLKRKRGDAVANAFLQEAGQKLKSNLRNGDIVSRWDKDEFIFLVSKVQDTSSLLGIAQRLMKPVLAPVTAGGRPFQPEITYGVALYPVDGEQVNDLIGHIRENLQQLLPQPTNPGSGEADDHIETAVDVRIGAPQPVPGLSDSDQKRLAIVEKRLLRALEQHELELYYQPQINWRKKTIEAMEAFIRWQHPQKGLLPPGQFLPWSDQTEFMVPLTRWILETACQQNVLWQQQLQTPFLVSVNISEKQFYHPLLKNMVMEAIAMAKMETHYLELEIQESTVMKDFGLAQQIITNLHNYGVGFSLDDFGTDYMSLRCLQDLPFQKLKIDKSLTAQLLEQTDNVPNLTMMETLINLGKTFNLKVVAEGVEQEEQINILDSLNCFFMQGYCFSEPLNILAANSFLHKYIAGN”, the protein production entry is given as “failed”.

As to “MKQIIDIENWERKENFNFFRHFQNPQLSITSEVECGGARQRAKAAGQSFFLHYLYAVLRAANEIPEFRYRIDPDGRVVLYDTIDMLSPIKIKENGKFFTTRFPYHNDFDTFYQEARLIIDAIPEDGDPYAAENEEVADGDYGLILLSATPDLYFTSITGTQEKRSGNNYPLLNAGKAIIREGRLVMPIAMTIHHGFIDGHHLSLFYKKVEDFLK”, the protein production result was “not failed”. Then “MKQKELWINQIKGLCICLVVIYHSVITFYPHLTTFQHPLSEVLSKCWIYFNLYLAPFRMPVFFFISGYLIRRYIDSVPWGNCLDKRIWNIFWVLALWGVVQWLALSALNQWLAPERDLSNASNAAYADSTGEFLHGMITASTSLWYLYALIVYFVVCKIFSRLALPLFALFVLLSVAVNFVPTPWWGMNSVIRNLPYYSLGAWFGATIMTCVKEVPLRRHLLMASLLTVLAVGAWLFTISLLLSLVSIVVIMKLFYQYEQRFGMRSTSLLNVIGSNTIAIYTTHRILVEIFSLTLLAQMNAARWSPQVELTLLLVYPFVSLFICTVAGLLVRKLSQRAFSDLLFSPPSLPAAVSYSR”, with “failed”; and “MKQKSLNPLSSSSPNYDEMIQENFKPHWIIGIDPNLSGALAVLKFDDKGSCFAQVYDTPQLEVVVQNIRTRSFNEKSMLELIRSLDVPSGTKAFVAKYIHPENAITAYNDGLGCGLWTLLTSSISVIYVTPSTWDKHFNLSIWSLDGGRKLALEMFPSLKLTTKIDDNARANALLIAAYGHATSDTRYYSFSQIK”, with “failed”.
